Assay results published in paper PMC4560099.

Target: 14-3-3ε (UniProt P62259)
Assay: GST-14-3-3ε pull-down from neuronal lysate
Conditions: reference: wild-type CRTC1270

## CRTC1 (CRTC1270 reporter) 1-270 (from UniProt Q68ED7) S151A
Sites S151
  binding against the reference: weaker

## CRTC1 (CRTC1270 reporter) 1-270 (from UniProt Q68ED7) S64A/S151A/S245A
Sites S64,S151,S245
  binding against the reference: lost

## CRTC1 (CRTC1270 reporter) 1-270 (from UniProt Q68ED7) S64A
Sites S64
  binding against the reference: weaker

## CRTC1 (CRTC1270 reporter) 1-270 (from UniProt Q68ED7) S245A
Sites S245
  binding against the reference: weaker
